What was measured:
Test in all cases: biochemical
Assay type in all cases: biochemical
266 human kinases [1] = target: 266 human kinases (Homo sapiens, UniProt P45984); details: JNK2α2(h); 100 μM
Summary of the method: (§1)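 Inhibition was judged from reduced transfer of labelled phosphate from ATP to a positively charged substrate, which was captured on a negatively charged membrane and quantified by scintillation counting against a 100% activity control.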

266 human kinases [2] = target: 266 human kinases (Homo sapiens, UniProt P49840); details: GSK3α(h); 100 μM
Summary of the method: as §1

266 human kinases [3] = target: T1, 266 human kinases (Homo sapiens, UniProt P52333); details: JAK3(h); 100 μM
T1 sequence (P52333 1-1124): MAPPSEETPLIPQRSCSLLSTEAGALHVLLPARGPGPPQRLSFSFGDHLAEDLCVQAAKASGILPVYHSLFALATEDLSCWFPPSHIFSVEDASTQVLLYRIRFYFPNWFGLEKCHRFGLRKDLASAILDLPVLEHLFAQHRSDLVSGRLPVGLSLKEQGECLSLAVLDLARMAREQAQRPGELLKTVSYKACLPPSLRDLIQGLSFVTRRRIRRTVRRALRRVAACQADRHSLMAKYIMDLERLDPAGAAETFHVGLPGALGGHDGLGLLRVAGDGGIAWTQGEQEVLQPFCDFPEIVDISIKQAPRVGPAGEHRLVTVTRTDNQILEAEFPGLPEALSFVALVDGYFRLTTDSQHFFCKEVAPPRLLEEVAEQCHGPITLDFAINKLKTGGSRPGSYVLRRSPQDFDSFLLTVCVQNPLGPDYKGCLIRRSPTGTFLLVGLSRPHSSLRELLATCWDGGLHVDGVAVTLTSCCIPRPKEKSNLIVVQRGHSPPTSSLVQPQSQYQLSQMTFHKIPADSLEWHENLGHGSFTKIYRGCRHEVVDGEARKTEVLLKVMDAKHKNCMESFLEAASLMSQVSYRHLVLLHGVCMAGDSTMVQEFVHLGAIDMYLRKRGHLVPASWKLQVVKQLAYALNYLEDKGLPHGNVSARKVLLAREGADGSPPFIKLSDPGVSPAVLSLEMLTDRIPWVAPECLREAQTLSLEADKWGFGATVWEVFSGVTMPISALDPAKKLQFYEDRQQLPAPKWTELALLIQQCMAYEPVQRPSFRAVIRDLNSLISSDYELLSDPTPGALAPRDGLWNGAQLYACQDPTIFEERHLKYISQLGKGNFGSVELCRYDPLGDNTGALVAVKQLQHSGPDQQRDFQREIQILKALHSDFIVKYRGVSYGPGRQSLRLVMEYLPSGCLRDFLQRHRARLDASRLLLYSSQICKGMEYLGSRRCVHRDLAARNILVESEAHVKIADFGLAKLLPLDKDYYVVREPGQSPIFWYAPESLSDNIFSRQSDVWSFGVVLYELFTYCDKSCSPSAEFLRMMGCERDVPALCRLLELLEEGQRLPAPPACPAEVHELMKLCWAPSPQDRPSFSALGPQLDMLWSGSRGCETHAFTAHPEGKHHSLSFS
Summary of the method: as §1

266 human kinases [4] = target: T2, 266 human kinases (Homo sapiens, UniProt Q9H2K8); details: TAO3(h); 100 μM
T2 sequence (Q9H2K8 1-898): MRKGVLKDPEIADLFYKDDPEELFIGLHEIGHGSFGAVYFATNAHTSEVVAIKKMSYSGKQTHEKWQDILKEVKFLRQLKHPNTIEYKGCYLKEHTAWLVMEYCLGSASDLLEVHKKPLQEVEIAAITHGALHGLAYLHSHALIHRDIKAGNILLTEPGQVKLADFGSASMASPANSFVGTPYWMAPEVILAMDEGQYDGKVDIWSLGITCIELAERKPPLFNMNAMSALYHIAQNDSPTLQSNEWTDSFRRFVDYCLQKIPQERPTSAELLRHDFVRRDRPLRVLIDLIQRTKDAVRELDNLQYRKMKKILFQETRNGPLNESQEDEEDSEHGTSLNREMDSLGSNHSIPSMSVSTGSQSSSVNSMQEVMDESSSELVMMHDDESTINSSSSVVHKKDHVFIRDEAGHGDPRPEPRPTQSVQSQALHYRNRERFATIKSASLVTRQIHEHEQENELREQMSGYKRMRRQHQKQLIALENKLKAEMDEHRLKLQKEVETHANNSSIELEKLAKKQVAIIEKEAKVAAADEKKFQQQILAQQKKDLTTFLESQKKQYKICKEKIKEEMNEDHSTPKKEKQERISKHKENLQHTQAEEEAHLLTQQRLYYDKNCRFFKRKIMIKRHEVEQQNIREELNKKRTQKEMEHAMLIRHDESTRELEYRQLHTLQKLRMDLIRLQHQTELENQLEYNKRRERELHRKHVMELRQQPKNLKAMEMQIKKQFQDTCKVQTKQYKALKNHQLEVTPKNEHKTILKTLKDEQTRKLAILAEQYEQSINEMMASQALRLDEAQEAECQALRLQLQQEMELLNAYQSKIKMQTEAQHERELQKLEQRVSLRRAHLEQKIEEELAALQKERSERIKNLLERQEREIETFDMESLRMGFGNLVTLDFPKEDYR
Summary of the method: as §1

266 human kinases [5] = target: 266 human kinases (Homo sapiens, UniProt Q9H4B4); details: Plk3(h); 100 μM
Summary of the method: as §1

266 human kinases [6] = target: T3, 266 human kinases (Homo sapiens, UniProt Q9HBY8); details: SGK2(h); 100 μM
T3 sequence (Q9HBY8 whole entry, looked up): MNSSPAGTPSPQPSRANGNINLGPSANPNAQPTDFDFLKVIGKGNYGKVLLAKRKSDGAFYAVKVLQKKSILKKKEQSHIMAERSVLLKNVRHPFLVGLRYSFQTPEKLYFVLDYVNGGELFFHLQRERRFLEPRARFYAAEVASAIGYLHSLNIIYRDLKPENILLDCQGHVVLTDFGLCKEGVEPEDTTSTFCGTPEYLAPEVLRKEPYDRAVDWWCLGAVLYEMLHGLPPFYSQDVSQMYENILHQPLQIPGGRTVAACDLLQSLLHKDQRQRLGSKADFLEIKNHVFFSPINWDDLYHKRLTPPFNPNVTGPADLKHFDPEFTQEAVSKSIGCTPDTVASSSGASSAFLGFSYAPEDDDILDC
Summary of the method: as §1

266 human kinases [7] = target: 266 human kinases (Homo sapiens, UniProt O75914); details: PAK3(h); 100 μM
Summary of the method: as §1

266 human kinases [8] = target: 266 human kinases (Homo sapiens, UniProt Q9HCP0); details: CK1γ1(h); 100 μM
Summary of the method: as §1

Chain of 266 human kinases (Homo sapiens, UniProt Q9HCP0) (Q9HCP0 whole entry): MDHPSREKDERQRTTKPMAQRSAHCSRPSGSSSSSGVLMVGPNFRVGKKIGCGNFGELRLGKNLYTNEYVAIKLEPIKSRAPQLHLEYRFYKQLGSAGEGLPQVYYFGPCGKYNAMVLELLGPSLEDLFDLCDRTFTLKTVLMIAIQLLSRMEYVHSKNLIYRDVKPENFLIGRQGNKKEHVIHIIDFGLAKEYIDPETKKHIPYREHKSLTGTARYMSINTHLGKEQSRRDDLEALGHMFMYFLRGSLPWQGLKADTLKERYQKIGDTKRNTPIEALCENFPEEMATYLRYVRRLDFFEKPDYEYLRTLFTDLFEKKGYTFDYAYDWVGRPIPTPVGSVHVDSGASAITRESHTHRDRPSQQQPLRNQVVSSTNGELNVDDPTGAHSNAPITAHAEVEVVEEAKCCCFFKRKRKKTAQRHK
Chain of 266 human kinases (Homo sapiens, UniProt Q9H4B4) (Q9H4B4 whole entry): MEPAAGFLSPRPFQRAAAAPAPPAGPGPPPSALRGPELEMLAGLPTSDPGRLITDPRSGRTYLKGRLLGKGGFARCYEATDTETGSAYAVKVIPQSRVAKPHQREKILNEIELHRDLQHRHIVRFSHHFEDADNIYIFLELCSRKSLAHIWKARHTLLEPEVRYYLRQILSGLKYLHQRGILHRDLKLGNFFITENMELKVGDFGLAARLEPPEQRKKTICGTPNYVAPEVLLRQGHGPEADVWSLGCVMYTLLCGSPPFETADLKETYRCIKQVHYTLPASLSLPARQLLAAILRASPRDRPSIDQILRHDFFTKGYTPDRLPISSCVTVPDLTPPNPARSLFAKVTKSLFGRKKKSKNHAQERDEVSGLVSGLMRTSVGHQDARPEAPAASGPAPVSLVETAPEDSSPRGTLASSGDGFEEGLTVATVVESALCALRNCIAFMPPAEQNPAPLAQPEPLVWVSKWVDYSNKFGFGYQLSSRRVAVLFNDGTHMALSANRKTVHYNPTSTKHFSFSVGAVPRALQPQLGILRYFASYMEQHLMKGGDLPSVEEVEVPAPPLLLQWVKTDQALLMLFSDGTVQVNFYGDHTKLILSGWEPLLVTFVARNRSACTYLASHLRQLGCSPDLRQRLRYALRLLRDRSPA
Chain of 266 human kinases (Homo sapiens, UniProt P49840) (P49840 whole entry): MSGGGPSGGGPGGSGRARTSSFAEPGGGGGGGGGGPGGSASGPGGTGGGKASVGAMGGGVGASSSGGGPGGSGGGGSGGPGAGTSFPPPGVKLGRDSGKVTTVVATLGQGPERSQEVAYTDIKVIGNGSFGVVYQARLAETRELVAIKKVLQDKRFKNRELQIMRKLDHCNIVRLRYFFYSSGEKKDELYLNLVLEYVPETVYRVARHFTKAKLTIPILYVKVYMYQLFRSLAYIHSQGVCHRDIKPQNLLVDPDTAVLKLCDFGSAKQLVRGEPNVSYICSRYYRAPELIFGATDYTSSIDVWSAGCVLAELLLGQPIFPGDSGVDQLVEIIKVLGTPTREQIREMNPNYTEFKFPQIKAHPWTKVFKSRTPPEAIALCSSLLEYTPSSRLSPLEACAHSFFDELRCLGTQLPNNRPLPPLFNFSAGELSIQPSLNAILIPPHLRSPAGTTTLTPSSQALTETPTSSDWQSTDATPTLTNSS
Chain of 266 human kinases (Homo sapiens, UniProt O75914) (O75914 whole entry): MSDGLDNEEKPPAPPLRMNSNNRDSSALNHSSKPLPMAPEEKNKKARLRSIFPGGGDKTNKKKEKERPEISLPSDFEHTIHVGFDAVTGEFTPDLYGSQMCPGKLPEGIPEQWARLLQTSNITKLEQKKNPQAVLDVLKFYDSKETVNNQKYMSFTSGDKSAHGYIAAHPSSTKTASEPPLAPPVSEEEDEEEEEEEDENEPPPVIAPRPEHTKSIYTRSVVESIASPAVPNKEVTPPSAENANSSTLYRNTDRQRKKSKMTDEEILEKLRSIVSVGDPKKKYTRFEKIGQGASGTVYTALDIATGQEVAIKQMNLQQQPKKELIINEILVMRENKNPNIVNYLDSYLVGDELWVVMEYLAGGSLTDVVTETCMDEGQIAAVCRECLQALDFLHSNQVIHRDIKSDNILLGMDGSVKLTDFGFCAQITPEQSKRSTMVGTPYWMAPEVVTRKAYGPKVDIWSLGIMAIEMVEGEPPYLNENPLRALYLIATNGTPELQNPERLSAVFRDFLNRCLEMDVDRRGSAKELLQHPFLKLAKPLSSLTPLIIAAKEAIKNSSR

For “HRRIKAWLKKIKALARQLGVAA (mammal) [MMI-0500]”, the “% activity” value (266 human kinases [1]) was 81%, the “% activity” value (266 human kinases [2]) was 175% and the “% activity” value (266 human kinases [3]) was 95%. The “% activity” value (266 human kinases [4]) was 12%, the “% activity” value (266 human kinases [5]) was 122% and the “% activity” value (266 human kinases [6]) was −1%.

“YARAAARQARAKALNRQLGVA (mammal) [MMI-0200]” was tested, and the “% activity” value (266 human kinases [7]) was 50% and the “% activity” value (266 human kinases [8]) was 98%.
